Measured values from patent US20160264960A1 (Chugai, published 2016).
One block for each binder: values may come before it.

What was measured:
soluble human IL-6R [1] = target: T1, soluble human IL-6R (human, UniProt P08887 20-357); assay: biolayer interferometry (Octet RED384), antibody on Protein G biosensor, soluble human IL-6R in solution, 120 s association and 120 s dissociation [d]
T1 construct: Analyte in the Octet experiments; also called hIL-6R; soluble hIL-6R
T1 sequence: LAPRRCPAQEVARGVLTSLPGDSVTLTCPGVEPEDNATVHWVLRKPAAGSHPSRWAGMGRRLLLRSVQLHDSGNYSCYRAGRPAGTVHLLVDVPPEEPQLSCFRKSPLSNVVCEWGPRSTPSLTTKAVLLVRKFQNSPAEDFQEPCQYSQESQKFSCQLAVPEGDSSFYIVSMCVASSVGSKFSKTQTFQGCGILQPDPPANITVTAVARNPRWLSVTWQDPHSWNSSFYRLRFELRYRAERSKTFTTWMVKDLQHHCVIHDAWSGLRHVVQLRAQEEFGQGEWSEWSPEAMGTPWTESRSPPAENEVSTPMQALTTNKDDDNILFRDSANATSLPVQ
Description: (§1) Each antibody (PANH-2_52, PANH-2_68, and PANH-3_10) obtained in the paragraph (4-1) or an anti-human IL-6R antibody PF1 antibody was evaluated for its binding activity against soluble human plexin A1 and soluble human IL-6R using Octet RED384 (forteBIO). The binding evaluation was conducted using HBS-EP+Buffer (GE Healthcare Japan Corp.) as a buffer.
(§2) After binding of the antibody to Protein G Biosensors (forteBIO), soluble human plexin A1 or soluble human IL-6R was allowed to interact with the antibody on the biosensor through contact therebetween for 120 seconds, and subsequently contacted with the buffer for 120 seconds to measure the antibody-antigen interaction. Then, the biosensor was regenerated through contact with 10 mmol/L glycine-HCl (pH 1.5). The measurement was conducted at 30° C.

mouse IgA = target: T2, mouse IgA (mouse, UniProt P01878 114-344); assay: biolayer interferometry (Octet RED384), antibody on Protein G biosensor, mouse IgA in solution; antigen concentration not given [c]
T2 sequence (looked up): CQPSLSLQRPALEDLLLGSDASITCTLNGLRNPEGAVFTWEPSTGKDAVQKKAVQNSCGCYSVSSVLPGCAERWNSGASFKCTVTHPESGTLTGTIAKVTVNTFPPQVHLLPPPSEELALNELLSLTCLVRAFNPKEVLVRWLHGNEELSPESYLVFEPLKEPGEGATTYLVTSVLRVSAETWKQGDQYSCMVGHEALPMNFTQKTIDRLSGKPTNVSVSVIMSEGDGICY
Description: (§3) Each antibody (mIANH-2_27 and mIANH-3_79) obtained in the paragraph (4-1) or a PF1 antibody was evaluated for its binding activity against mouse IgA or soluble human IL-6R using Octet RED384 (forteBIO). The binding evaluation was conducted using HBS-EP+Buffer (GE Healthcare Japan Corp.) as a buffer.
as §2, with “mouse IgA” for “soluble human plexin A1”

soluble human plexin A1 [2] = target: T3, soluble human plexin A1 (human, UniProt Q9UIW2 27-1244); assay: biolayer interferometry (Octet RED384), antibody on Protein G biosensor, soluble human plexin A1 in solution; antigen concentration not given [d]
T3 construct: also called hPlexin A1; human Plexin A1 extracellular region
T3 sequence (Q9UIW2 other isoform, or with tags, fused parts or gaps): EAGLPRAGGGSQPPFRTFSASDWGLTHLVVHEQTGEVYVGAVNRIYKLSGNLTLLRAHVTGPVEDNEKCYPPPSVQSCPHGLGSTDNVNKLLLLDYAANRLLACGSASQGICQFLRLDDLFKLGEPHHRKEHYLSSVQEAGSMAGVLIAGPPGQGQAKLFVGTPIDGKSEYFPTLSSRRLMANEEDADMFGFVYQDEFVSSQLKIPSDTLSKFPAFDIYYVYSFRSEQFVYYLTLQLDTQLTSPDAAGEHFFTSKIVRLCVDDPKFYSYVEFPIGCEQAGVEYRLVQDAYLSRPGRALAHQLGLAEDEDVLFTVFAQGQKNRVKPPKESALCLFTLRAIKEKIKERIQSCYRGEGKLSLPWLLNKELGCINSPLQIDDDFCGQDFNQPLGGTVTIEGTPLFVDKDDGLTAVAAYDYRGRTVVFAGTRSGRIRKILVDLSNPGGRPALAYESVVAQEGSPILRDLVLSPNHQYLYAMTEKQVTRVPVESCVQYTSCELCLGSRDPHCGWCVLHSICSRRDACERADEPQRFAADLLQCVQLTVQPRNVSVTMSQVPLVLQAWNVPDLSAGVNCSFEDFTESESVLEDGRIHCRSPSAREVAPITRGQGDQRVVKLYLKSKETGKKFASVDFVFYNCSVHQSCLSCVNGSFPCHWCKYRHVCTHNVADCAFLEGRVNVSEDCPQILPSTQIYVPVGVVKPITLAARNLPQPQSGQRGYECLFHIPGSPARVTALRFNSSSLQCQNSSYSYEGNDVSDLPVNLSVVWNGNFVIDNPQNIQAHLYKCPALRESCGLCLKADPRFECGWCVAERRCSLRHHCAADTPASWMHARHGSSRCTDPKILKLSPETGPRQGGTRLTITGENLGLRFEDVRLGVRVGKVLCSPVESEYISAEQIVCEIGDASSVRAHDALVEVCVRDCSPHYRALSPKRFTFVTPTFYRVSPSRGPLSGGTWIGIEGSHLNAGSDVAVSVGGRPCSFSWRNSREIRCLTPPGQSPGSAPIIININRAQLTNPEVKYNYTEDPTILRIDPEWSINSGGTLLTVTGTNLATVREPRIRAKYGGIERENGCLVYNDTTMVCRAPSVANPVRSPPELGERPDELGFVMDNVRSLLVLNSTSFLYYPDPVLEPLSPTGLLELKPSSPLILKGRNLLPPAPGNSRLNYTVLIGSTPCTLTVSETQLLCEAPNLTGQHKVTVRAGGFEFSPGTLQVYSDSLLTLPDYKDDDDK
Description: as §1, §2

soluble human plexin A1 [3] = target: T3, soluble human plexin A1; assay: biolayer interferometry (Octet RED384), antibody on Protein G biosensor, soluble human plexin A1 in solution, 120 s association and 120 s dissociation [b]
Description: as §1, §2

soluble human IL-6R [4] = target: T1, soluble human IL-6R; assay: biolayer interferometry (Octet RED384), antibody on Protein G biosensor, soluble human IL-6R in solution; antigen concentration not given [b]
Description: as §1, §2

soluble human IL-6R [5] = target: T1, soluble human IL-6R; assay: as above; remark: listed apart in the source
Description: as §3
as §2, with “mouse IgA” for “soluble human plexin A1”

soluble human IL-6R [6] = target: T1, soluble human IL-6R; assay: biolayer interferometry (Octet RED384), antibody on Protein G biosensor, soluble human IL-6R in solution; antigen concentration not given [c]
Description: as §1, §2

soluble human plexin A1 [7] = target: T3, soluble human plexin A1; assay: biolayer interferometry (Octet RED384), antibody on Protein G biosensor, soluble human plexin A1 in solution, 120 s association and 120 s dissociation [c]
Description: as §1, §2

soluble human IL-6R [8] = target: T1, soluble human IL-6R; assay: biolayer interferometry (Octet RED384), antibody on Protein G biosensor, soluble human IL-6R in solution; antigen concentration not given [a]
Description: as §3
as §2, with “mouse IgA” for “soluble human plexin A1”

soluble human plexin A1 [9] = target: T3, soluble human plexin A1; assay: biolayer interferometry (Octet RED384), antibody on Protein G biosensor, soluble human plexin A1 in solution, 120 s association and 120 s dissociation [a]
Description: as §1, §2

soluble human IL-6R [10] = target: T1, soluble human IL-6R; assay: biolayer interferometry (Octet RED384), antibody on Protein G biosensor, soluble human IL-6R in solution; antigen concentration not given [a]; remark: listed apart in the source
Description: as §1, §2

B1: PF1 (antibody, human IgG1, kappa, V domains shown)
VH: QVQLQESGPGLVKPSETLSLTCAVSGYSISDDHAWSWVRQPPGEGLEWIGYISYSGITNYNPSLKGRVTISRDTSKNQFSLKLSSVTAADTAAYYCARVLARITAMDYWGEGTLVTVSS
VL: DIQMTQSPSSLSASVGDSVTITCQASQDISSYLNWYQQKPGKAPELLIYYGSELHSGVPSRFSGSGSGTDFTFTISSLEAEDAATYYCGQGNRLPYTFGQGTKVEIER
notes: also called PF1 antibody; anti-IL-6R antibody PF1 antibody
binding result (soluble human IL-6R [1]): binds | binding result (mouse IgA): no binding | binding result (soluble human plexin A1 [2]): no binding

B2: PANH-2_68 (antibody, human IgG1, kappa, V domains shown)
VH: QVQLVQSGAEVKKPGASVKVSCKASGYTFTSYGISWVRQAPGQGLEWMGWISAYNGNTNYAQKLQGRVTMTTDTSTSTAYMELRSLRSDDTAVYYCARAHTKDIWGQGTMVTVSS
VL: DIQMTQSPSSLSASVGDSVTITCQASQDISSYLNWYQQKPGKAPELLIYYGSELHSGVPSRFSGSGSGTDFTFTISSLEAEDAATYYCGQGNRLPYTFGQGTKVEIER
notes: IgG with the PF1 L chain
binding result (soluble human plexin A1 [3]): binds | binding result (soluble human IL-6R [4]): no binding

B3: mIANH-3_79 (antibody, human IgG1, kappa, V domains shown)
VH: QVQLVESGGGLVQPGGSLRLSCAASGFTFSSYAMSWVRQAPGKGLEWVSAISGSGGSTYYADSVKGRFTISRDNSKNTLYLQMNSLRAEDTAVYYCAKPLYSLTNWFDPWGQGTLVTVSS
VL: DIQMTQSPSSLSASVGDSVTITCQASQDISSYLNWYQQKPGKAPELLIYYGSELHSGVPSRFSGSGSGTDFTFTISSLEAEDAATYYCGQGNRLPYTFGQGTKVEIER
notes: IgG with the PF1 L chain
binding result (soluble human IL-6R [5]): no binding

B6: PANH-2_52 (antibody, human IgG1, kappa, V domains shown)
VH: EVQLVQSGGGVVQPGRSLRLSCAASGFTFSSYAMHWVRQAPGKGLEWVAVISYDGSNKYYADSVKGRFTISRDNSKNTLYLQMNSLRAEDTAVYYCARPPMEWLFWDAFDIWGQGTMVTVSS
VL: DIQMTQSPSSLSASVGDSVTITCQASQDISSYLNWYQQKPGKAPELLIYYGSELHSGVPSRFSGSGSGTDFTFTISSLEAEDAATYYCGQGNRLPYTFGQGTKVEIER
notes: IgG with the PF1 L chain
binding result (soluble human plexin A1 [9]): binds | binding result (soluble human IL-6R [10]): no binding

Results, then the binder that gave them:

binding result (soluble human IL-6R [6]): no binding | binding result (soluble human plexin A1 [7]): binds
B4: PANH-3_10 (antibody, human IgG1, kappa, V domains shown)
VH: QVQLQESGPGLVKPSETLSLTCTVSGGSISSSSYYWGWIRQPPGKGLEWIGSIYYSGSTYYNPSLKSRVTISVDTSKNQFSLKLSSVTAADTAVYYCARDPVQLEHSRYYYYYGMDVWGQGTTVTVSS
VL: DIQMTQSPSSLSASVGDSVTITCQASQDISSYLNWYQQKPGKAPELLIYYGSELHSGVPSRFSGSGSGTDFTFTISSLEAEDAATYYCGQGNRLPYTFGQGTKVEIER
notes: IgG with the PF1 L chain

binding result (soluble human IL-6R [8]): no binding
B5: mIANH-2_27 (antibody, human IgG1, kappa, V domains shown)
VH: EVQLVQSGAEVKKPGASVKVSCKASGYTFTGYYIHWVRQAPGQGLEWMGRINPNSGGTNYAQKFQGRVTMTRDTSISTAYMQLSRLRSDDTAVYYCARDNSGWGGFDAFDIWGQGTMVTVSS
VL: DIQMTQSPSSLSASVGDSVTITCQASQDISSYLNWYQQKPGKAPELLIYYGSELHSGVPSRFSGSGSGTDFTFTISSLEAEDAATYYCGQGNRLPYTFGQGTKVEIER
notes: IgG with the PF1 L chain
